Reference: US20200283521A1 (GRANULAR THERAPEUTICS, published 2020)
Numbering of substitutions follows the chain as printed. Where two headings read alike, the source gives them in different places.

T1: F13A1 (human, UniProt P00488 39-732)
T1 construct: whole, on cells
T1 sequence (looked up): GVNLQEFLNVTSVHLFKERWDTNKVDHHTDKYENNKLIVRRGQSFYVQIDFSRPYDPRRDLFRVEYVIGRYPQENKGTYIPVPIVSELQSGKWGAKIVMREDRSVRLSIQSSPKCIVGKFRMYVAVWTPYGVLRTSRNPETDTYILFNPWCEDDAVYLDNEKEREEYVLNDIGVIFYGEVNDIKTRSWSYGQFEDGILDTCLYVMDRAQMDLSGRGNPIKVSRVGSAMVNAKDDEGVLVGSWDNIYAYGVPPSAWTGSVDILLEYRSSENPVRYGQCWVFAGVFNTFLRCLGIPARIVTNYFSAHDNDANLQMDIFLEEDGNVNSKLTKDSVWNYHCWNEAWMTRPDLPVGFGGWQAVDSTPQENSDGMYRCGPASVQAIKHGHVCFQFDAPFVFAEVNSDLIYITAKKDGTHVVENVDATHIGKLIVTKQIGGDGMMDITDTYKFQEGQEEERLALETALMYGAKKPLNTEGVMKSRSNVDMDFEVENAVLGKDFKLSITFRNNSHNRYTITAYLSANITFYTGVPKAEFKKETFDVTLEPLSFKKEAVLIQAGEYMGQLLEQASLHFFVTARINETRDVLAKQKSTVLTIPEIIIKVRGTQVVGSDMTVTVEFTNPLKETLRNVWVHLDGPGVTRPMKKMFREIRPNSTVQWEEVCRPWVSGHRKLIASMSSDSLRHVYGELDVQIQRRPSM

T2: CRIM1 (human, UniProt Q9NZV1 35-1036)
T2 construct: whole, on cells
T2 sequence (looked up): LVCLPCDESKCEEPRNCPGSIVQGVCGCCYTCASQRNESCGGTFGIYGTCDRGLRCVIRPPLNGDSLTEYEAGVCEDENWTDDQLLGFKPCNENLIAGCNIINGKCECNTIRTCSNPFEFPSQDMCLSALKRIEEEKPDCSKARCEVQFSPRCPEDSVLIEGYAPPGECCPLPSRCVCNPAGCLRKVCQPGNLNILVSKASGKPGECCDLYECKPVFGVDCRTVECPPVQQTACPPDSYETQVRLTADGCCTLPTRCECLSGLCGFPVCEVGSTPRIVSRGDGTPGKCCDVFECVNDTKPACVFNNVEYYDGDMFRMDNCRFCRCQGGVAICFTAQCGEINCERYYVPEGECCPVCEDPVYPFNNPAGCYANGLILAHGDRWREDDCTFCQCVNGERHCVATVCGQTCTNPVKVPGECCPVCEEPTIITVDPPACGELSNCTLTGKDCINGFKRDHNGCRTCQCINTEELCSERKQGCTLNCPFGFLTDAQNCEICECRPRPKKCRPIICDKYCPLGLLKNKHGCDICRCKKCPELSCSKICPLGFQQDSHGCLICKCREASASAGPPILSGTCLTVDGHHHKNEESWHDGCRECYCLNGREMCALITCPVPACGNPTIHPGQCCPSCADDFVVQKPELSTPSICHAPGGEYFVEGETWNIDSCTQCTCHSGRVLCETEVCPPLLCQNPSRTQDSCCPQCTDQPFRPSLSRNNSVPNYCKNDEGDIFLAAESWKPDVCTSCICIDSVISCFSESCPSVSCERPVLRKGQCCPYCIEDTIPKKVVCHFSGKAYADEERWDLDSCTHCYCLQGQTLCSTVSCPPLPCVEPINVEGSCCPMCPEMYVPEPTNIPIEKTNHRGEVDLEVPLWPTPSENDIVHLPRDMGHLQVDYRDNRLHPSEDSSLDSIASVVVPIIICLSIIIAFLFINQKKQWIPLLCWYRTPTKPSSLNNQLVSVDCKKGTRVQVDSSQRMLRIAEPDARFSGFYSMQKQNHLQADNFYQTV

T3: MMP7 (human, UniProt P09237 95-267)
T3 construct: whole, on cells
T3 sequence (looked up): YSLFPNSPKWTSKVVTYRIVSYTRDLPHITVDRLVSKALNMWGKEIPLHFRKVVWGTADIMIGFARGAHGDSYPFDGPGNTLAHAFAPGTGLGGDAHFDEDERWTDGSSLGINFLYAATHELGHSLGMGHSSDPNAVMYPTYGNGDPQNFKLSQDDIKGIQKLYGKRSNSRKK

B1: MH5, human IgG1 (antibody, V domains shown)
VH: QVQLVQSGAEVKKPGASVKVSCKASGYTFTDYYMNWVRQAPGQGLEWMGRIYPGSGNTYYAQKFQGRVTMTRDTSTSTVYMELSSLRSEDTAVYYCARGVYYYDYWGQGTLVTVSS
VL: DIQMTQSPSSLSASVGDRVTITCRASQGIRTNLAWFQQKPGKAPKSLIYSASSLQSGVPSRFSGSGSGTDFTLTISSLQPEDFATYYCQQYANYPRTFGGGTKVEIK
notes: IgG1; also called C-KIT-MH5; C-KIT-MHS
B2: MH5.22 (antibody, IgG1, V domains shown)
VH: B1 VH with Y32F, G54A, Y101W
VL: B1 VL with S50A
notes: IgG1; also called C-KIT-MH5.22
B3: humanized h37M, human IgG1 (antibody, V domains shown)
VH: QVQLVQSGAEVKKPGASVKLSCKASGYTFTDYYINWVRQAPGKGLEWIARIYPGSGNTYYNEKFKGRATLTADKSTSTAYMQLSSLRSEDTAVYFCARGVYYFDYWGQGTTVTVSS
VL: DIVMTQSPSSLSASVGDRVTITCKASQNVRTNVAWYQQKPGKAPKALIYSASYRYSGVPDRFTGSGSGTDFTLTISSLQPEDFADYFCQQYNSYPRTFGGGTKVEIK
notes: human IgG1; terbium-labelled as the tracer of the HTRF assays; also called C-KIT-h37M; h37M-IgG1
B4: MH1, human IgG1 (antibody, V domains shown)
VH: B1 VH
VL: B1 VL with S50A, A92N, N93S
notes: IgG1; also called IgG1-MH1

Assays:
human C-KIT-Fc [1] = target: T4, human C-KIT-Fc (human, UniProt P10721 26-524); test: direct titration ELISA on coated C-KIT-Fc, IgG1 format
T4 construct: also called biotinylated human C-KIT-Fc; not shown: Fc part not described

human C-KIT-Fc [2] = target: T4, human C-KIT-Fc; test: direct ELISA at 1 µg/ml
[3] = target: T5, cynomolgus monkey C-KIT-Fc (cynomolgus monkey); test: direct ELISA at 1 µg/ml
T5 construct: also called cyno C-KIT-Fc

[4] = target: T6, cynomolgus monkey C-KIT, full length, on CHO-K1 cells (cynomolgus monkey); test: flow cytometry, C-KIT-transfected CHO-K1 cells, IgG1 format
T6 construct: whole, on cells; also called cyno C-KIT+ CHO-K1 cells

human C-KIT-Fc [5] = target: T4, human C-KIT-Fc; test: HTRF competition vs Tb-h37M IgG1
human C-KIT-Fc [6] = target: T4, human C-KIT-Fc; test: HTRF competition vs Tb-h37M IgG1; remark: listed apart in the source
[7] = target: T5, cynomolgus monkey C-KIT-Fc; test: HTRF competition vs Tb-h37M IgG1
[8] = target: T7, human C-KIT, full length, on cells (human, UniProt P10721 26-976); test: flow cytometry, C-KIT-transfected CHO-K1 cells, IgG1 format
T7 construct: full-length cDNA stably transfected in CHO-K1; also used here for endogenous C-KIT of TF-1 cells; also called human C-KIT+ CHO-K1 cells; C-KIT on TF-1 cells

human C-KIT-Fc [9] = target: T4, human C-KIT-Fc; test: direct titration ELISA on coated C-KIT-Fc, IgG1 format; remark: listed apart in the source
[10] = target: T5, cynomolgus monkey C-KIT-Fc; test: as above
F13A1 = target: T1, F13A1; test: cell array, HEK293 re-array slides
CRIM1 = target: T2, CRIM1; test: cell array, HEK293 re-array slides
MMP7 = target: T3, MMP7; test: cell array, HEK293 re-array slides
EGFR = target: T8, EGFR (human, UniProt P00533); test: cell array, transfected fixed HEK293 cells
T8 construct: expressed in transfected HEK293 cells

Binder	EC50 (read off the curve) (human C-KIT-Fc [1])	OD450 nm (human C-KIT-Fc [2])	OD450 nm [3]	EC50 (read off the curve) [4]	IC50 (human C-KIT-Fc [5])	IC50 (human C-KIT-Fc [6])	IC50 [7]	EC50 (read off the curve) [8]	EC50 (read off the curve) (human C-KIT-Fc [9])	EC50 (read off the curve) [10]	binding result (F13A1)	binding result (CRIM1)	binding result (MMP7)	binding result (EGFR)
B1	~0.1 µg/mL	> 1.8 OD450 nm	> 2 OD450 nm	~0.5 µg/mL	0.063 µg/mL	0.067 µg/mL	0.058 µg/mL	~0.3 µg/mL	~0.1 µg/mL	~0.1 µg/mL	–	–	–	–
B2	–	> 1.8 OD450 nm	> 2 OD450 nm	~0.4 µg/mL	–	0.134 µg/mL	0.164 µg/mL	~0.4 µg/mL	–	–	–	–	–	–
B3	~0.1 µg/mL	> 1.8 OD450 nm	–	–	0.025 µg/mL	0.016 µg/mL	–	~0.2 µg/mL	~0.2 µg/mL	–	no binding (tested: 0.5 and 2 µg/ml)	no binding (tested: 0.5 and 2 µg/ml)	no binding (tested: 0.5 and 2 µg/ml)	–
B4	–	> 1.8 OD450 nm	> 2 OD450 nm	–	–	–	–	–	~0.1 µg/mL	–	no binding (tested: 0.5 and 2 µg/ml)	no binding (tested: 0.5 and 2 µg/ml)	no binding (tested: 0.5 and 2 µg/ml)	no binding (tested: 2 µg/ml)
